Assay in all cases: cell-based or functional assay
Test [1] has as its target GAD, GAL4-activation domain alone (UniProt P04386).
The target in test [2] is PIF3:GAD fusion protein (PIF3-GAL4-activation-domain fusion) (Arabidopsis) (UniProt O80536).
Test [3] addresses T1, PIF3:GAD fusion protein (PIF3-GAL4-activation-domain fusion) (Arabidopsis, UniProt O80536 1-524, limits assumed).
T1 sequence: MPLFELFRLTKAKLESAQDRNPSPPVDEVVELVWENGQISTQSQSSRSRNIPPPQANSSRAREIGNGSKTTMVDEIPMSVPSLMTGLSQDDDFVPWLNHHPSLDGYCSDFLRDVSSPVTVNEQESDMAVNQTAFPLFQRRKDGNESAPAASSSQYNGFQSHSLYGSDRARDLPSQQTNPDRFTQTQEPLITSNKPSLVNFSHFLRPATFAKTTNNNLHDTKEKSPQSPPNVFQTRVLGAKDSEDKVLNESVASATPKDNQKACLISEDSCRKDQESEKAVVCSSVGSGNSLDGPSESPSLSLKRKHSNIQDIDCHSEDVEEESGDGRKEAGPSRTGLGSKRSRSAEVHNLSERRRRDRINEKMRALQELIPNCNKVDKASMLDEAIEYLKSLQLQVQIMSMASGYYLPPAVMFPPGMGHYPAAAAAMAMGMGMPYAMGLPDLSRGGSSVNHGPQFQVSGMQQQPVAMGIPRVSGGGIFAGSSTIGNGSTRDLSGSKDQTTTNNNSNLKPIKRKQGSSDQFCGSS

GAD, GAL4-activation domain alone, sequence (P04386 768-881 limits assumed): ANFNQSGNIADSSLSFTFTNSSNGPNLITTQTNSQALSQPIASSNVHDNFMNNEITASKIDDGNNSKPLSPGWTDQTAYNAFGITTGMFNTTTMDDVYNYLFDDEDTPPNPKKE

In test [1], “GBD, GAL4 DNA-binding domain alone (from UniProt P04386 1-147)” showed a LacZ activity (M. U.), yeast two-hybrid liquid assay, Dark of 0.1 M. U; a LacZ activity (M. U.), yeast two-hybrid liquid assay, Rp of 0.2 M. U; a LacZ activity (M. U.), yeast two-hybrid liquid assay, Rp/FRp of 0.2 M. U.
Take “phyB(NT):GBD fusion protein, Pr form (PCB chromophore, in darkness or after far-red light) (from UniProt P14713 1-621; P04386 1-147)”: in test [2], the LacZ activity (M. U.), yeast two-hybrid liquid assay, Dark is 0.1 M. U and the LacZ activity (M. U.), yeast two-hybrid liquid assay, Rp/FRp (red pulse followed at once by far-red pulse) is 0.1 M. U.

B1: phyB(NT):GBD fusion protein, Pfr form (PCB chromophore, after red light) (other, UniProt P14713 1-621, looked up)
chain: MVSGVGGSGGGRGGGRGGEEEPSSSHTPNNRRGGEQAQSSGTKSLRPRSNTESMSKAIQQYTVDARLHAVFEQSGESGKSFDYSQSLKTTTYGSSVPEQQITAYLSRIQRGGYIQPFGCMIAVDESSFRIIGYSENAREMLGIMPQSVPTLEKPEILAMGTDVRSLFTSSSSILLERAFVAREITLLNPVWIHSKNTGKPFYAILHRIDVGVVIDLEPARTEDPALSIAGAVQSQKLAVRAISQLQALPGGDIKLLCDTVVESVRDLTGYDRVMVYKFHEDEHGEVVAESKRDDLEPYIGLHYPATDIPQASRFLFKQNRVRMIVDCNATPVLVVQDDRLTQSMCLVGSTLRAPHGCHSQYMANMGSIASLAMAVIINGNEDDGSNVASGRSSMRLWGLVVCHHTSSRCIPFPLRYACEFLMQAFGLQLNMELQLALQMSEKRVLRTQTLLCDMLLRDSPAGIVTQSPSIMDLVKCDGAAFLYHGKYYPLGVAPSEVQIKDVVEWLLANHADSTGLSTDSLGDAGYPGAAALGDAVCGMAVAYITKRDFLFWFRSHTAKEIKWGGAKHHPEDKDDGQRMHPRSSFQAFLEVVKSRSQPWETAEMDAIHSLQLILRDSFKESMKLLSSIEQACDICRLKKLKCSKEKPKCAKCLKNNWECRYSPKTKRSPLTRAHLTEVESRLERLEQLFLLIFPREDLDMILKMDSLQDIKALLTGLFVQDNVNKDAVTDRLASVETDMPLTLRQHRISATSSSEESSNKGQRQLTVS
modifications: phycocyanobilin (PCB) chromophore attached to the phytochrome moiety (residue not stated); Pfr conformer after red light
In the case of B1, in test [3], the “LacZ activity, fold induction 5 min after a 1 min saturating red-light pulse” value amounted to 2 fold; the “LacZ activity, fold induction 10 min after a 1 min saturating red-light pulse” value is 4 fold; the “LacZ activity, fold induction 30 min after a 1 min saturating red-light pulse” value is 50 fold; the “induction of LacZ expression above background by a single red-light pulse” value came to 1000 fold.
